Positions count from the first letter of the chain named. Several values for one entry are separate records, joined by “and”; a condition that tells them apart may be missing. Equal values may be shown once. Read-outs that look alike come from different tables or passages of the source.
Experiments:
[1] = molecular target: T1, human IL4Rα expressed on 293F-IL4Rα cells (human, UniProt P24394 26-825); experiment: flow cytometry, 293F-IL4Rα cells
T1 construct: whole, on cells; also called cell surface human IL4Rα
Procedure: (§1) Then, 2×10⁵ cells per well in 96 well-plates were incubated in 100 μL of the anti-IL4Rα antibodies or controls of various concentrations (starting at 80 nM with a 4-fold serial dilution) in FACS buffer for 40 minutes on ice. […] Following an incubation of 40 minutes at 4° C. in dark, cells were washed three times and resuspended in FACS buffer. Fluorescence was measured using a Becton Dickinson FACS Canto II-HTS equipment. Data was analyzed using Graphpad Prism software and EC₅₀ values were reported.

[2] = molecular target: T1, human IL4Rα expressed on 293F-IL4Rα …; experiment: flow cytometry, 293F-IL4Rα cells; remark: listed apart in the source
Procedure: as §1

[3] = molecular target: T2, marmoset monkey IL4Rα-his protein (marmoset monkey); experiment: indirect ELISA on coated cal-IL4Rα-his
T2 construct: Custom made by Sino biological; no cleavage site stated; also called cal-IL4Rα-his; Cal-IL4Rα
T2 chain: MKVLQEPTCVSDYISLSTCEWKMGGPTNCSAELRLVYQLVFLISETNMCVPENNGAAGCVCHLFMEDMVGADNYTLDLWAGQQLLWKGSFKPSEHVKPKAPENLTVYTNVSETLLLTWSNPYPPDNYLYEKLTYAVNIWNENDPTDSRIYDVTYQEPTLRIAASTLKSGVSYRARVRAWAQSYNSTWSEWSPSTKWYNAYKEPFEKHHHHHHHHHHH

[4] = molecular target: T1, human IL4Rα expressed on 293F-IL4Rα …; experiment: flow cytometry on 293F-IL4Rα cells
[5] = molecular target: T3, cynomolgus monkey IL4Rα-his protein (cynomolgus monkey, UniProt A0A2K5V580 33-239); experiment: indirect ELISA on coated cynomolgus IL4Rα-his
T3 construct: Bought protein; also called Cynomolgus IL4Rα; Cyno-IL4Rα-his; not shown: his tag

[6] = molecular target: T4, recombinant human IL4Rα-his protein (in house made) (human, UniProt P24394 26-232, limits assumed); experiment: capture ELISA: antibody captured on anti-IgG Fc plate, biotin human IL4Rα-his detected
T4 construct: also called Human IL4Ra-his

[7] = molecular target: T1, human IL4Rα expressed on 293F-IL4Rα …; experiment: flow cytometry, blocks biotin-IL4 binding to 293F-IL4Rα cells
Procedure: Then, 1×10⁵ cells per well in 96 well-plates were incubated in 100 μL of the anti-IL4Rα antibodies or controls of various concentrations (starting at 80 nM with a 4-fold serial dilution) in FACS buffer for 40 minutes on ice. The plates were washed twice with FACS buffer, and added and incubated for 40 minutes at 4° C. in dark with 100 μl/well 1.67 nM biotin-labeled human IL4 protein (Sino biological inc., Cat #11846-HNAE). The plates were washed twice with FACS buffer, and then added and incubated for 40 minutes at 4° C. in dark with 100 μl/well R-Phycoerythrin Streptavidin (1:500 dilution in FACS buffer, Jackson Immunoresearch, Cat #016-110-084). Cells were washed twice and resuspended in FACS buffer. Fluorescence was measured using a Becton Dickinson FACS Canto II-HTS equipment. Data was analyzed using Graphpad Prism software and IC₅₀ values were reported.

[8] = molecular target: T4, recombinant human IL4Rα-his protein (in …); experiment: SPR (Biacore), antibody captured, IL4Rα-his flowed
[9] = molecular target: T1, human IL4Rα expressed on 293F-IL4Rα …; experiment: flow cytometry, 293F-IL4Rα cells; remark: listed apart in the source
Procedure: as §1

[10] = molecular target: human IL4Rα expressed on HEK293T-IL4Rα-STAT6-STAT6LUC-LB2 cells (human, UniProt P24394 26-825); experiment: cell-based or functional assay
[11] = molecular target: T4, recombinant human IL4Rα-his protein (in …); experiment: competitive ELISA: coated human IL4Rα-his, blocked ligand biotin human IL4
[12] = molecular target: T4, recombinant human IL4Rα-his protein (in …); experiment: SPR (Biacore), antibody captured, IL4Rα-his flowed; remark: listed apart in the source
[13] = molecular target: T1, human IL4Rα expressed on 293F-IL4Rα …; experiment: flow cytometry on 293F-IL4Rα cells, blocked ligand biotin human IL4
[14] = molecular target: T4, recombinant human IL4Rα-his protein (in …); experiment: competitive ELISA: antibody mixed with biotin human IL4Rα-his, competitor plate-coated Benchmark
[15] = molecular target: T3, cynomolgus monkey IL4Rα-his protein; experiment: indirect ELISA on coated cynomolgus IL4Rα-his; remark: listed apart in the source
[16] = molecular target: T2, marmoset monkey IL4Rα-his protein; experiment: indirect ELISA on coated cal-IL4Rα-his
[17] = molecular target: T1, human IL4Rα expressed on 293F-IL4Rα …; experiment: flow cytometry on 293F-IL4Rα cells; remark: listed apart in the source
[18] = molecular target: T4, recombinant human IL4Rα-his protein (in …); experiment: competitive ELISA: coated human IL4Rα-his, blocked ligand biotin human IL4; remark: listed apart in the source
[19] = molecular target: T4, recombinant human IL4Rα-his protein (in …); experiment: capture ELISA: antibody captured on anti-IgG Fc plate, biotin human IL4Rα-his detected; remark: listed apart in the source
[20] = molecular target: T1, human IL4Rα expressed on 293F-IL4Rα …; experiment: flow cytometry on 293F-IL4Rα cells, blocked ligand biotin human IL4; remark: listed apart in the source

B1: mouse antibody C2C1A1A1 (antibody, V domains shown)
VH: EVQLVESGGGLVQPGGSLKLSCAASGFTFSTYGMSWVRQTPDKRLELVATINSNGGSTSYPDSVKGRFTISRDNAKNTLYLQMSSLKSEDTAMFYCARFFRFRNAMDYWGQGTSVTVSS
VL: DIQMTQSPASLSASVGETVTITCRTSENIYSYLAWYQQKQGKSPQFLVYNAKTLAEGVPSRFSGSGSGTQFSLNINSLQSEDFGSYYCQHYYGPPTWTFGGGTKLEIK
notes: Mouse hybridoma mAb; also called Mouse C2C1A1A1
B1 gave an EC50 [1] of 0.31 nM, an EC50 [2] of 0.16 nM and an EC50 [3] of 0.574 nM.

B2: chimeric antibody C2C1A1A1 (antibody, human IgG4 S228P, kappa, V domains shown)
VH: B1 VH
VL: DIQMTQSPASLSASVGETVTITCRTSENIYSYLAWYQQKQGKSPQFLVYNAKTLAEGVPSRFSGSGSGTQFSLNINSLQSEDFGSYYCQHYYGPPTWTFGGGTKLEIKR
notes: Mouse variable domains on human IgG4/kappa; also called Chimeric C2C1A1A1; chC2C1A1A1
B2 was tested, and the EC50 [4] was 0.326 nM, the EC50 [5] was 0.603 nM and the EC50 [1] was 0.63 nM. For the same binder, the EC50 [6] was 0.0541 nM, the IC50 [7] was 0.48 nM and the Kd [8] was 0.388 nM. For the same binder, the EC50 [9] was 0.33 nM, the “Inhibition on IL4 induced STAT6 phosphorylation (IC50, nM)” value [10] was 0.26 nM and the “Inhibition on IL13 induced STAT6 phosphorylation (IC50, nM)” value [10] was 0.39 nM. The IC50 [11] was 2.46 nM, the kon [12] was 329000 M⁻¹ s⁻¹ and 364000 M⁻¹ s⁻¹ and the IC50 [13] was 0.482 nM. It also gave an EC50 [3] of 0.623 nM and an IC50 [14] of 0.172 nM.

B3: mouse antibody C2B2F7B7 (antibody, V domains shown)
VH: B1 VH with S59N, F94Y, F102I
VL: B1 VL with T25A, N74K, S80P, P94T
notes: Mouse hybridoma mAb
Binder B3 has an EC50 [2] of 0.18 nM.

B4: mouse antibody B8G11F2B7G5E8 (antibody, V domains shown)
VH: EVQLQQSGADLVRPGASVKLSCTASGFNIKDTYMHWVKQRPEQGLEWVGRIDPTNGYTIYASKFQGKATITADTSSNTAYMQLSSLTSGDTAVYHCVSRRPWFAYWGQGTLVTVSA
VL: DILMTQTPLSLPVSLGAQASISCRSSQSIVHSNGNTYLEWYLQKPGQSPKLLIYKVTNRFSGVPDRFSGSGSGTDFTLKISRVEAEDLGIYYCFQGSHVPYTFGGGTKLEIK
notes: Mouse hybridoma mAb; also called Mouse B8G11F2B7G5E8; mAb B8G11F2B7G5E8
Work on B4 yielded an EC50 [15] of 0.5 nM, an EC50 [1] of 0.41 nM and an EC50 [16] of 0.873 nM. The EC50 [17] was 0.325 nM, the IC50 [7] was 0.5 nM and the EC50 [9] was 0.33 nM. It also gave an IC50 [18] of 1 nM, an EC50 [2] of 0.25 nM and an EC50 [19] of 0.213 nM. The IC50 [20] was 0.5 nM.

B5: chimeric antibody B8G11F2B7G5E8 (antibody, human IgG4 S228P, kappa, V domains shown)
VH: B4 VH
VL: DILMTQTPLSLPVSLGAQASISCRSSQSIVHSNGNTYLEWYLQKPGQSPKLLIYKVTNRFSGVPDRFSGSGSGTDFTLKISRVEAEDLGIYYCFQGSHVPYTFGGGTKLEIKR
notes: Mouse variable domains on human IgG4/kappa; also called Chimeric B8G11F2B7G5E8; chB8G11F2B7G5E8
Work on B5 yielded an EC50 [15] of 1.06 nM, an EC50 [1] of 0.78 nM and an EC50 [16] of 1.01 nM. For the same binder, the EC50 [17] was 0.442 nM, the IC50 [7] was 0.36 nM and the Kd [8] was 3.23 nM. For the same binder, the EC50 [9] was 0.44 nM, the IC50 [18] was 1.42 nM and the “Inhibition on IL4 induced STAT6 phosphorylation (IC50, nM)” value [10] was 0.45 nM. The “Inhibition on IL13 induced STAT6 phosphorylation (IC50, nM)” value [10] was 0.5 nM, the EC50 [19] was 0.319 nM and the IC50 [20] was 0.364 nM.

B6: mouse antibody B1D2F7D3B5 (antibody, V domains shown)
VH: EVKLVESGGGLVKPGGSLKLSCAASGFTFSSYAMSWVRQTPEKRLEWVASISSGDSTYYLDSVKGRFTISRDNAMNILYLQMSSLRSEDTAVYYCERSGGSAPYWGQGTLVSVSA
VL: QIVLTQSPAIMSASPGEMVTISCSASSSVSYMYWYQQKPGSSPKPWIYRTSNLASGVPARFSGSGSGTSYSLTISSMEAEDAATYYCQQYHSFPLTFGAGTKLELK
notes: Mouse hybridoma mAb
Binder B6 has an EC50 [2] of 0.25 nM.

B7: mouse antibody B9D1D11F8D8 (antibody, V domains shown)
VH: B6 VH with M75R, M82V, V92M, S112T
VL: B6 VL with E17D, S30N
notes: Mouse hybridoma mAb
For B7, the EC50 [2] was 0.22 nM.
